Data set [1] relates to hemagglutinin on whole virus (Influenza A virus A/England/42/1972 (H3N2)). The data set can be described thus: SERS sandwich. The following applies: […], pH 7.4), 25 C, […], room temperature, 1 h.
Data set [2] has as its target hemagglutinin on whole virus (Influenza A virus A/New Caledonia/20/1999 (H1N1)) (UniProt Q6WG00). Nature of the data set: SERS sandwich. The following applies: […], pH 7.4), 25 C, […], room temperature, 1 h.
In data set [3] the test system is hemagglutinin on whole virus (Influenza A virus A/duck/Moscow/4182/2010 (H5N3)). Nature of the data set: SERS sandwich. Conditions: […], pH 7.4), 25 C, […], room temperature, 1 h.
Data set [4] has as its system hemagglutinin on whole virus (Influenza A virus A/Buryatia/2408/2001 (H4N6)). Nature of the data set: SERS sandwich. The following applies: […], pH 7.4), 25 C, […], room temperature, 1 h.
For data set [5], the system named is hemagglutinin on whole virus (Influenza A virus A/Buryatia/652/1988 (H3N8)). Nature of the data set: SERS sandwich. Conditions: […], pH 7.4), 25 C, […], room temperature, 1 h.
The subject of data set [6] is hemagglutinin on whole virus (Influenza A virus A/duck/Primorie/3691/2002 (H12N2)). The data set can be described thus: SERS sandwich. Conditions: […], pH 7.4), 25 C, […], room temperature, 1 h.
The target in data set [7] is hemagglutinin on whole virus (Influenza A virus A/Vietnam/1203/2004-PR8/CDC-R (H5N1)) (UniProt Q6DQ33). Nature of the data set: SERS sandwich. Conditions: […], pH 7.4), 25 C, […], room temperature, 1 h.
Data set [8] concerns hemagglutinin on whole virus (Influenza A virus A/tern/South Africa/1/1961 (H5N3)). The data set can be described thus: SERS sandwich. The following applies: […], pH 7.4), 25 C, […], room temperature, 1 h.
The test system of data set [9] is hemagglutinin on whole virus (Influenza A virus A/Mississippi/1/1985 (H3N2)). The data set can be described thus: SERS sandwich. The following applies: […], pH 7.4), 25 C, […], room temperature, 1 h.
For data set [10], the target named is hemagglutinin on whole virus (Influenza A virus A/Aichi/2/1968 (H3N2)) (UniProt P03437). Nature of the data set: SERS sandwich.
For data set [11], the system named is hemagglutinin on whole virus (Influenza A virus A/Primorie/3/1982 (H9N2)). The data set can be described thus: SERS sandwich. The following applies: […], pH 7.4), 25 C, […], room temperature, 1 h.
Data set [12] deals with hemagglutinin on whole virus (Influenza A virus A/mallard/Sweden/91/2002 (H7N9)). Nature of the data set: ELAA. The following applies: […], pH 7.4), 25 C, […], room temperature, 1 h.
Data set [13] concerns hemagglutinin on whole virus (Influenza A virus A/England/42/1972 (H3N2)). The data set can be described thus: ELAA. Conditions: […], pH 7.4), 25 C, […], room temperature, 1 h.
The target of data set [14] is hemagglutinin on whole virus (Influenza A virus A/New Caledonia/20/1999 (H1N1)) (UniProt Q6WG00). Nature of the data set: ELAA. Conditions: […], pH 7.4), 25 C, […], room temperature, 1 h.
For data set [15], the system named is hemagglutinin on whole virus (Influenza A virus A/duck/Primorie/3691/2002 (H12N2)). The data set can be described thus: ELAA. Conditions: […], pH 7.4), 25 C, […], room temperature, 1 h.
In data set [16] the target is hemagglutinin on whole virus (Influenza A virus A/Vietnam/1203/2004-PR8/CDC-R (H5N1)) (UniProt Q6DQ33). The data set can be described thus: ELAA. Conditions: […], pH 7.4), 25 C, […], room temperature, 1 h.
For data set [17], the system named is hemagglutinin on whole virus (Influenza A virus A/Primorie/3631/2002 (H9N2)). Nature of the data set: ELAA. The following applies: […], pH 7.4), 25 C, […], room temperature, 1 h.
Data set [18] deals with hemagglutinin on whole virus (Influenza A virus A/Puerto-Rico/8/1934 (H1N1)) (UniProt P03452). Nature of the data set: ELAA.
Sequence of hemagglutinin on whole virus (Influenza A virus A/Puerto-Rico/8/1934 (H1N1)) (P03452 whole entry): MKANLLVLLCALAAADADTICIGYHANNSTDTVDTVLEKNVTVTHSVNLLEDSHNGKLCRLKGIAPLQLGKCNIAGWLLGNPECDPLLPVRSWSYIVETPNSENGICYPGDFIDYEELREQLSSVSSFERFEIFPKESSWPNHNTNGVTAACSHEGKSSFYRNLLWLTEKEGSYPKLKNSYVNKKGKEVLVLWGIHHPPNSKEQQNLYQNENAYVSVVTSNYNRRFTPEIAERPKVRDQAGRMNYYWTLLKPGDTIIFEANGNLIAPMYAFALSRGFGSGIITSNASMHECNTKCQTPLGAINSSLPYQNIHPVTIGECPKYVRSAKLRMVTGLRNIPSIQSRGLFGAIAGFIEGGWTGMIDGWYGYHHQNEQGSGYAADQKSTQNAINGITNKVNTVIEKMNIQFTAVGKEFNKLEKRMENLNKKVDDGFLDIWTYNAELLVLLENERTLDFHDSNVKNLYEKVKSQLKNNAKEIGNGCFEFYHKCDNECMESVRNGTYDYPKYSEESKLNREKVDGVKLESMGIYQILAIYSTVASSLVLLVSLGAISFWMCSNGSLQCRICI
Data set [19] relates to hemagglutinin on whole virus (Influenza A virus A/tern/South Africa/1/1961 (H5N3)). Nature of the data set: ELAA. Conditions: […], pH 7.4), 25 C, […], room temperature, 1 h.
In data set [20] the target is hemagglutinin on whole virus (Influenza A virus A/Aichi/2/1968 (H3N2)) (UniProt P03437). The data set can be described thus: ELAA.
Data set [21] has as its system recombinant hemagglutinin H9 (Influenza A virus (H9 subtype, strain not stated)). The data set can be described thus: SPR. Conditions: […], pH 7.4), 25 C, room temperature, 1 h.
Data set [22] relates to recombinant hemagglutinin H7 (Influenza A virus (H7 subtype, strain not stated)). The data set can be described thus: SPR. The following applies: […], pH 7.4), 25 C, room temperature, 1 h.
For data set [23], the system named is recombinant hemagglutinin H3 (Influenza A virus (H3 subtype, strain not stated)). The data set can be described thus: SPR. The following applies: […], pH 7.4), 25 C, room temperature, 1 h.
Data set [24] has as its system recombinant hemagglutinin H1 (Influenza A virus (H1 subtype, strain not stated)). Nature of the data set: SPR. The following applies: […], pH 7.4), 25 C, room temperature, 1 h.
In data set [25] the test system is recombinant hemagglutinin H5 (Influenza A virus (H5 subtype, strain not stated)). The data set can be described thus: SPR. The following applies: […], pH 7.4), 25 C, room temperature, 1 h.

As to “TTGGGGTTATTTTGGGAGGGCGGGGGTT [RHA0385-Cy3]”, the binding signal (relative SERS signal) amounted to 3 in data set [1]; 1.7 in data set [2]; 2.9 in data set [3]; 6.9 in data set [4]; 2.4 in data set [5]; 5 in [6]. Moreover, the binding signal (relative SERS signal) in data set [7] worked out at 4.8; in data set [8] it was 6.5; in [9], 4.3; in data set [10], 4.1; in data set [11], 2.4.
Consider “TTGGGGTTATTTTGGGAGGGCGGGGGTT [RHA0385-Biotin]”, for which the Kd is 0.013 µM in [12]; 0.04 µM in [13]; 0.042 µM in data set [14]; more than 0.2 µM in data set [15]; 0.034 µM in data set [16]; 0.016 µM in data set [17]. The Kd in data set [18] was determined as 0.013 µM; in [19], 0.2 µM; in [20], 0.017 µM.
Consider TTGGGGTTATTTTGGGAGGGCGGGGGTT [RHA0385], for which the Kd came out at 0.014 µM in [21]; 0.012 µM in [22]; 0.012 µM in data set [23]; 0.007 µM in data set [24]; 0.013 µM in [25].

As usually defined, the Kd is the constant that tells how readily two partners part at equilibrium.
